Test results published in the nanobody polyreactivity screen of Harvey et al. (2022).

experiment: yeast display, Sf9 membrane polyspecificity reagent, FACS + sequencing; frameworks hold sequencing errors
How it was run: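 A synthetic nanobody library was expressed on Saccharomyces cerevisiae BJ5465 by galactose induction for 36–48 hours. The library was stained for 1 hour at 4 °C with 10% biotinylated, detergent-solubilized Sf9 membrane reagent and enriched with streptavidin microbeads before FACS. Low and high (top ~1%) gates were set on anti-HA fluorescence for expression and streptavidin fluorescence for reagent binding, and each polyreactivity label reflects the gate of origin.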

Row | Sequence | polyreactivity (PSR sort gate)
1 | QVQLVESGGGLVQAGGSLRLSCAASGSIFDSNAMGWYRQAPRQERELVAAISSGGNTNYADSVKGRFTISRDNAKNTVYLQMNSLKPDDTAVYYCARDTQLPHFYGRVSEYDYWGQGTQVTVSA | low polyreactivity
2 | QVQLVESGGGLVQAGGSLRLSCAASGSIFDSYAMGWSRQAPGKERELVAAITWSGGITFYADSVKGRFTISRDNAKNTVYLQMNSLKPEDTAVYYCATARSYVGVGGTFVGLYDYWGQCTQVTVSS | low polyreactivity
3 | QVQLVESGGGLVQAGGSLRLSCAASGSIFDSYAMGWYRQAPGKDRELVAAISGNSDSTYYADSVKGRFTISRDNATNTVYSQMNSLKAEDTAVYNCNARGRLPYLEFYYWGQGTQVTVSS | low polyreactivity
4 | QVQLVESGGGLVQAGGSLRLSCAASGSIFDSYTMAWYRQEPGKEREFVAAISRGGGSTYYADSVKGRFTISRDNAKNTVYLQMNSLKPEDTAVYYCAASSYLNSRFKFDYWGQGTQVTVSS | low polyreactivity
5 | QVQLVESGGGLVQAGGSLRLSCAASGSIFDVNAMGCARQAPGNERELVAGISWSGGSTYYADSVKGRFTISRDNAKNTVYLQMNSLKPEDTAVYYCNAEGPIYFYFYRGMDYWGQGTQVTVSS | low polyreactivity
6 | QVQLVESGGGLVQAGGSLRLSCAASGSIFDVNAMGWYRQAPGKERELVAAISDSGGSTYYADSVKGRFTISRDNAKNTVYLQMNSLKPEDSAVYYCNADWSWYNYYDFDYWGQGTQVTVSS | low polyreactivity
7 | QVQLVESGGGLVQAGGSLRLSCAASGSIFDVNAMGWYRQAPGKERELVASIDNSGTTNYADSVKGRFTISRDNAKNTVYLHMNSLKPEDTAVYYCAKDASLEYSRWGGDYWGQGTQVTVSS | low polyreactivity
8 | QVQLVESGGGLVQAGGSLRLSCAASGSIFDVNTMGSYRQAPGKETELGASITSSGSTYYADSVKGRFTISRDNAKNTVYLQMNSLKPEDTAVYYCAATPIGQHFTLDYWGQGTQVTVSS | low polyreactivity
9 | QVQLVESGGGLVQAGGSLRLSCAASGSIFDVYAMGWYRLAPGKERELVAAINWTGGSTYYADSVKGRFTISRDNAKNTVYLQMNSLKPEDTAVYYCAASYYYGTEHYDYWGQGTQVTVSS | low polyreactivity
10 | QVQLVESGGGLVQAGGSLRLSCAASGSIFDVYAMGWYRQAPGKERELVAAITWRGGSTYYADSVKGRFTISRDNAKNTVYLQMNSLKPEDTAVYYCAAVYQSRLWDRYYYWGQGTQVTVSS | high polyreactivity
11 | QVQLVESGGGLVQAGGSLRLSCAASGSIFDVYTMGWYRQAPGKDRELVAAINTGGGSTYYADSVKGRFTISRDNAKNTVYLQMNSLKPEDTAVYYCARSRYREWGQGTQVTVSS | low polyreactivity
12 | QVQLVESGGGLVQAGGSLRLSCAASGSIFDVYTRGWYRQAPGKQRELVAAINTGGGSTYYADSEKGRFTISRDIAKNTVYLQMNSLKPEDTAVYYCAASVYHYGPLYYWGQVTQVTVSS | low polyreactivity
13 | QVQLVESGGGLVQAGGSLRLSCAASGSIFDWYAMGWYRQAPGKEGELVAAISSGDSTYYADSVKGRFTISRDNAKNTVYLQMNSLKPEDTAVYYGAAVTKLSGIRYNYWGQGTQVTVSS | low polyreactivity
14 | QVQLVESGGGLVQAGGSLRLSCAASGSIFDYNAMGWYIQAPGKEREFVAAITYSGGSTYYADSVKGRFTISRDNAKYTVYLQMYSLKPEDSAVYYCGADYFQHVPKYGYCGQGTQVTVSS | low polyreactivity
15 | QVQLVESGGGLVQAGGSLRLSCAASGSIFDYYAMGWYRQAPGKERELVAAIDSGDITYYADSVKGRFTISRDNAMNTVYLQMNSLKPEETAVYYCAAEGTGYSVGWQYGYWGQGTQVTVSS | low polyreactivity
16 | QVQLVESGGGLVQAGGSLRLSCAASGSIFDYYAMGWYRQAPGKERELVAAIRRIGGITYYADSVKGRFTISRDNAKNTVYLQMNSLKPEDTAVYYCNVLVKHSTTTYSTYDYWGQGTQVTVSS | high polyreactivity

Row | Sequence | polyreactivity (PSR sort gate)
17 | QVQLVESGGGLVQAGGSLRLSCAASGSIFDYYAMGWYRQAPGKERELVAAISGTGGSTYYADSVKGRFTISRDNAKNTVYLQMNSLKPEDTAVYYCNAGRHILTALRNDGTFDYWGQGTQVTVSS | high polyreactivity
18 | QVQLVESGGGLVQAGGSLRLSCAASGSIFDYYTMGWYRQAPGKEREFVAGISDSGGSTNYADSVKGRFTISRDNAKNTVYLQMNSLKPEDTAVYYCNAEYVGWFYKYDYWGQGTQVTVSS | high polyreactivity
19 | QVQLVESGGGLVQAGGSLRLSCAASGSIFEFYAMGWYRQAPGKERELVAAITSDGGSTYYADSVKGRFTISRDNAKNTVYLQMNSLKPEDTAVYYCAKDPYALPAQINDYWGQGTQVTVSS | high polyreactivity
20 | QVQLVESGGGLVQAGGSLRLSCAASGSIFEGYGMGWYRQAPGKERELVASISTGDSTKYADSVKGRFTISRDNAKNTVYLQMNSLKPEDTAVYYCNAPYFYLPHKYDYWGQGTQVTVSS | low polyreactivity
21 | QVQLVESGGGLVQAGGSLRLSCAASGSIFELNAMGWSRQAPGKERELVAAITSSGSSTYYADSVKGRFTISRDNAKNTVYLQMNSLKPEDTAVYYCARDAFEPYDVGEYYYWGQGTQVTVSS | low polyreactivity
22 | QVQLVESGGGLVQAGGSLRLSCAASGSIFELNAMGWYRQAPGKEMELVAAIRWRTGRTYYADSVKGRFTISRDNAKNTVYLLMNSLKPEDTAVYYCNADVTSLTRVHGRFIVSDYDYWGQGTQVTVSS | low polyreactivity
23 | QVQLVESGGGLVQAGGSLRLSCAASGSIFEQNAMGWYRQAPGKERELVAGINEGGGSTYYADSVKGRFTISRDNAKNTVYLQMNSLKPEDTAVYYCAATLGSRWAIYDYWGQGTQVTVSS | high polyreactivity
24 | QVQLVESGGGLVQAGGSLRLSCAASGSIFEQYAMGWYRKAPGKERELVAAISSGGSTNYADSVKGRFTISRDNAKNTVYLQMNSLKPEDTAVYYCAAAYYTVGWLYYDYWYPFAYYYWGQGTQVTVSS | low polyreactivity
25 | QVQLVESGGGLVQAGGSLRLSCAASGSIFEQYPMGWYRQAPGKERELVAAISRRSGRTYYADSVKGRFTISRDNAKHTVYLQMHSLIPEDTAVYYCAASGIYFVQYNSWGQGTHVTVSS | high polyreactivity
26 | QVQLVESGGGLVQAGGSLRLSCAASGSIFERYAMGWYRQAPGKERELVAAISWRGGSTYYADSVKGRFTISRDNAKNTVYLQMNSLKPEDTAVYYCAAGARYVKQGYGYWGQGTQVTVSS | high polyreactivity
27 | QVQLVESGGGLVQAGGSLRLSCAASGSIFESNAMGWYRPAPGKEREFVAAIDQNDGSTNYADSVKGRFTISRDHAKNTVYLQMNSLKPEDTAVYYCAKYWGYLGYYEFDYWGQGTQVTVSS | low polyreactivity
28 | QVQLVESGGGLVQAGGSLRLSCAASGSIFESYAMGWYRQAPGKERELVASISGGGSTYYADSVKGRFTISRDNAKNTVYLQMNSLKPEDTAGYYCATVYVRYRQSRLIRYGYWGQGTQVTVSS | high polyreactivity
29 | QVQLVESGGGLVQAGGSLRLSCAASGSIFESYARGWYRHSPGKERELVADITYHGGITYYADSVKGRFTISRDNAKNNFYLQMNSLKPEDTSVYYCAAESEKWYNYVLSYDWEYDYWGQGTQVTVSS | low polyreactivity
30 | QVQLVESGGGLVQAGGSLRLSCAASGSIFESYVMGWSRPAPGTEREMVAAISSGGSTYYADSVKGRFTISRDNAKNTVYLQMNSLKPEDTAVYYCAANYDGGYLDYEAGYRLEYDYWGQGTQVTVSS | low polyreactivity
31 | QVQLVESGGGLVQAGGSLRLSCAASGSIFESYVMGWYRQAPGKERELVAAISSGGSTYYADSVKGRFTISRDNAKNTVYLQMNSLKPEDTAVYYCNTEVVRFKYDYWGQGTQVTVSS | low polyreactivity
